PMC5074521, “Dom34 Links Translation to Protein O-mannosylation”

What was measured:
Dom34 N317A = Dom34 N317A (Candida albicans, UniProt A0A1D8PSD0 1-393, N317A); assay: EMSA; 400 nM protein, 20 nM RNA; as wild type; UTR/6S EMSA: 10 mM Tris-HCl pH 8.0, 100 mM NaCl, 30 C 10 min, then heparin 50 ng/ul 10 min, native 5% PAGE (legend 6%); oligo EMSA: LightShift RNA EMSA kit, room temperature 20 min; footprint: RNase 1 min at 37 C; conditions: protein: recombinant; tags: C-terminal His6; label: 3'-biotin; single strand
Dom34 [1] = molecular target: T1, Dom34 (Candida albicans, UniProt A0A1D8PSD0 1-393); assay: EMSA; 400 nM protein, 20 nM RNA; complex I, plus II with 0.05% lauryl sarcosinate; UTR/6S EMSA: 10 mM Tris-HCl pH 8.0, 100 mM NaCl, 30 C 10 min, then heparin 50 ng/ul 10 min, native 5% PAGE (legend 6%); oligo EMSA: LightShift RNA EMSA kit, room temperature 20 min; footprint: RNase 1 min at 37 C; conditions: protein: recombinant; tags: C-terminal His6; label: 3'-biotin; single strand
Dom34 E21A [2] = molecular target: T2, Dom34 E21A (Candida albicans, UniProt A0A1D8PSD0 1-393, E21A); assay: EMSA; 400 nM protein, 20 nM RNA; enhanced vs wild type; UTR/6S EMSA: 10 mM Tris-HCl pH 8.0, 100 mM NaCl, 30 C 10 min, then heparin 50 ng/ul 10 min, native 5% PAGE (legend 6%); oligo EMSA: LightShift RNA EMSA kit, room temperature 20 min; footprint: RNase 1 min at 37 C; conditions: protein: recombinant; tags: C-terminal His6; label: 3'-biotin; single strand
Dom34 E21A [3] = molecular target: T2, Dom34 E21A; assay: EMSA; heparin challenge 50 ng/ul; apparent KD; UTR/6S EMSA: 10 mM Tris-HCl pH 8.0, 100 mM NaCl, 30 C 10 min, then heparin 50 ng/ul 10 min, native 5% PAGE (legend 6%); oligo EMSA: LightShift RNA EMSA kit, room temperature 20 min; footprint: RNase 1 min at 37 C; conditions: protein: recombinant; tags: C-terminal His6; label: 3'-32P-pCp; single strand with predicted paired regions
Dom34 [4] = molecular target: T1, Dom34; assay: EMSA; heparin challenge; binding visible above 0.3 uM, no free RNA at 2.5 uM (bound or degraded); lower affinity than E21A; UTR/6S EMSA: 10 mM Tris-HCl pH 8.0, 100 mM NaCl, 30 C 10 min, then heparin 50 ng/ul 10 min, native 5% PAGE (legend 6%); oligo EMSA: LightShift RNA EMSA kit, room temperature 20 min; footprint: RNase 1 min at 37 C; conditions: protein: recombinant; tags: C-terminal His6; label: 3'-32P-pCp; single strand with predicted paired regions

Row | Binder | binding result (Dom34 N317A) | binding result (Dom34 [1]) | binding result (Dom34 E21A [2]) | Kd (Dom34 E21A [3]) [nM] | binding result (Dom34 [4])
1 | ACAACAACAACAACAACCACCACAACCACAACUAUAAACAAU (ssRNA) [PMT1 5'-UTR RNA oligonucleotide] | binds | binds | binds | – | –
2 | PMT1 5'-UTR RNA (full) (structured_RNA) RNA: GGCAAGAUUCUUUUUCAAGAUUUUUCAUUUUUACAACAACAACAACAACCACCACAACCACAACUAUAAACAAUUGAUAUAGCAUUAUCUUUUAAGAUUAUUGAAUAAAGGUCAAUUUAUAGCGCCCCCCCUCACUCCACCUCCUACCGUCUUUCUUUCACGCAACUAAAACAAAUUUUUAUAUUUUUAUUUUUAUUUUUAUUUUAGUUUCCCAUUCAAUAGAUC | – | – | – | ~100 | binds
